Measurements as given in the supplement of paper PMC12855868.

B1: library; numbered along this chain (parent)
chain: MAAAGGARLLRAASAVLGGPAGRWLHHAGSRAGSSGLLRNRGPGGSAEASRSLSVSARARSSSEDKITVHFINRDGETLTTKGKVGDSLLDVVVENNLDIDGFGACEGTLACSTCHLIFEDHIYEKLDAITDEENDMLDLAYGLTDRSRLGCQICLTKSMDNMTVRVPETVADARQSIDVGKTS

Variants of: B1
Test: scaled log2 fold change in cell abundance, elesclomol vs control (0 = silent mean, 1 = nonsense mean) (scaled log2 ratio); higher = higher viability under elesclomol (loss of FDX1 cuproptosis function)
Conditions: glucose 10 mM
Protocol: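 Deep mutational scan of full-length human FDX1: a pooled saturation-mutagenesis ORF library (every residue 2-184 mutated to all 19 amino acids plus stop, and silent codons where available) was expressed by lentivirus in FDX1-knockout ABC1 (14 days) or HEK293T (11 days) cells grown with elesclomol (ES) or DMSO control. Variant abundance came from ORF sequencing. The log2 fold change (ES vs control, mean of duplicates) was centred on the silent-variant mean (0) and scaled to the nonsense-variant mean (1). Higher values mean greater viability under ES, i.e. loss of FDX1 function in cuproptosis.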

[1] = with ABC1 FDX1 KO, elesclomol 5 nM, 14 days
[2] = with HEK293T FDX1 KO, elesclomol 40 nM, 11 days
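Also: variant abundance is its share of total variant reads in each endpoint sample, from next-generation sequencing of the integrated ORF PCR-amplified out of genomic DNA.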

| Variant | scaled log2 fold change [1] | scaled log2 fold change [2] |
| --- | --- | --- |
| MAAAGGARLLRAASAVLGGPAGRWLHHAGSRAGSSGLLRNRGPGGSAEASRSLSVSARARSSSEDKITVHFINRDGETLTTKGKVGDSLLDLVVENNLDIDGFGACEGTLACSTCHLIFEDHIYEKLDAITDEENDMLDLAYGLTDRSRLGCQICLTKSMDNMTVRVPETVADARQSIDVGKTS [V92L] | 0.019 | – |
| MAAAGGARLLRAASAVLGGPAGRWLHHAGSRAGSSGLLRNRGPGGSAEASRSLSVSARARSSSEDKITVHFINRDGETLTTKGKVGDSLLDKVVENNLDIDGFGACEGTLACSTCHLIFEDHIYEKLDAITDEENDMLDLAYGLTDRSRLGCQICLTKSMDNMTVRVPETVADARQSIDVGKTS [V92K] | 0.913 | 0.724 |
| MAAAGGARLLRAASAVLGGPAGRWLHHAGSRAGSSGLLRNRGPGGSAEASRSLSVSARARSSSEDKITVHFINRDGETLTTKGKVGDSLLDPVVENNLDIDGFGACEGTLACSTCHLIFEDHIYEKLDAITDEENDMLDLAYGLTDRSRLGCQICLTKSMDNMTVRVPETVADARQSIDVGKTS [V92P] | 0.511 | 0.131 |
| MAAAGGARLLRAASAVLGGPAGRWLHHAGSRAGSSGLLRNRGPGGSAEASRSLSVSARARSSSEDKITVHFINRDGETLTTKGKVGDSLLDTVVENNLDIDGFGACEGTLACSTCHLIFEDHIYEKLDAITDEENDMLDLAYGLTDRSRLGCQICLTKSMDNMTVRVPETVADARQSIDVGKTS [V92T] | -0.145 | – |
| MAAAGGARLLRAASAVLGGPAGRWLHHAGSRAGSSGLLRNRGPGGSAEASRSLSVSARARSSSEDKITVHFINRDGETLTTKGKVGDSLLDSVVENNLDIDGFGACEGTLACSTCHLIFEDHIYEKLDAITDEENDMLDLAYGLTDRSRLGCQICLTKSMDNMTVRVPETVADARQSIDVGKTS [V92S] | 0.501 | -0.213 |
| MAAAGGARLLRAASAVLGGPAGRWLHHAGSRAGSSGLLRNRGPGGSAEASRSLSVSARARSSSEDKITVHFINRDGETLTTKGKVGDSLLDGVVENNLDIDGFGACEGTLACSTCHLIFEDHIYEKLDAITDEENDMLDLAYGLTDRSRLGCQICLTKSMDNMTVRVPETVADARQSIDVGKTS [V92G] | 0.459 | 0.237 |
| MAAAGGARLLRAASAVLGGPAGRWLHHAGSRAGSSGLLRNRGPGGSAEASRSLSVSARARSSSEDKITVHFINRDGETLTTKGKVGDSLLDNVVENNLDIDGFGACEGTLACSTCHLIFEDHIYEKLDAITDEENDMLDLAYGLTDRSRLGCQICLTKSMDNMTVRVPETVADARQSIDVGKTS [V92N] | 0.121 | 0.904 |
| MAAAGGARLLRAASAVLGGPAGRWLHHAGSRAGSSGLLRNRGPGGSAEASRSLSVSARARSSSEDKITVHFINRDGETLTTKGKVGDSLLDYVVENNLDIDGFGACEGTLACSTCHLIFEDHIYEKLDAITDEENDMLDLAYGLTDRSRLGCQICLTKSMDNMTVRVPETVADARQSIDVGKTS [V92Y] | 0.0368 | -0.087 |
| MAAAGGARLLRAASAVLGGPAGRWLHHAGSRAGSSGLLRNRGPGGSAEASRSLSVSARARSSSEDKITVHFINRDGETLTTKGKVGDSLLDEVVENNLDIDGFGACEGTLACSTCHLIFEDHIYEKLDAITDEENDMLDLAYGLTDRSRLGCQICLTKSMDNMTVRVPETVADARQSIDVGKTS [V92E] | 0.961 | 0.463 |
| MAAAGGARLLRAASAVLGGPAGRWLHHAGSRAGSSGLLRNRGPGGSAEASRSLSVSARARSSSEDKITVHFINRDGETLTTKGKVGDSLLDRVVENNLDIDGFGACEGTLACSTCHLIFEDHIYEKLDAITDEENDMLDLAYGLTDRSRLGCQICLTKSMDNMTVRVPETVADARQSIDVGKTS [V92R] | 1.1 | 0.379 |
| MAAAGGARLLRAASAVLGGPAGRWLHHAGSRAGSSGLLRNRGPGGSAEASRSLSVSARARSSSEDKITVHFINRDGETLTTKGKVGDSLLDMVVENNLDIDGFGACEGTLACSTCHLIFEDHIYEKLDAITDEENDMLDLAYGLTDRSRLGCQICLTKSMDNMTVRVPETVADARQSIDVGKTS [V92M] | -0.0956 | 0.391 |
| MAAAGGARLLRAASAVLGGPAGRWLHHAGSRAGSSGLLRNRGPGGSAEASRSLSVSARARSSSEDKITVHFINRDGETLTTKGKVGDSLLDIVVENNLDIDGFGACEGTLACSTCHLIFEDHIYEKLDAITDEENDMLDLAYGLTDRSRLGCQICLTKSMDNMTVRVPETVADARQSIDVGKTS [V92I] | -0.0115 | 0.336 |
| MAAAGGARLLRAASAVLGGPAGRWLHHAGSRAGSSGLLRNRGPGGSAEASRSLSVSARARSSSEDKITVHFINRDGETLTTKGKVGDSLLDFVVENNLDIDGFGACEGTLACSTCHLIFEDHIYEKLDAITDEENDMLDLAYGLTDRSRLGCQICLTKSMDNMTVRVPETVADARQSIDVGKTS [V92F] | 0.0178 | 0.0606 |
| MAAAGGARLLRAASAVLGGPAGRWLHHAGSRAGSSGLLRNRGPGGSAEASRSLSVSARARSSSEDKITVHFINRDGETLTTKGKVGDSLLDQVVENNLDIDGFGACEGTLACSTCHLIFEDHIYEKLDAITDEENDMLDLAYGLTDRSRLGCQICLTKSMDNMTVRVPETVADARQSIDVGKTS [V92Q] | -1.03 | 0.183 |
| MAAAGGARLLRAASAVLGGPAGRWLHHAGSRAGSSGLLRNRGPGGSAEASRSLSVSARARSSSEDKITVHFINRDGETLTTKGKVGDSLLDWVVENNLDIDGFGACEGTLACSTCHLIFEDHIYEKLDAITDEENDMLDLAYGLTDRSRLGCQICLTKSMDNMTVRVPETVADARQSIDVGKTS [V92W] | 0.354 | -0.298 |
| MAAAGGARLLRAASAVLGGPAGRWLHHAGSRAGSSGLLRNRGPGGSAEASRSLSVSARARSSSEDKITVHFINRDGETLTTKGKVGDSLLDHVVENNLDIDGFGACEGTLACSTCHLIFEDHIYEKLDAITDEENDMLDLAYGLTDRSRLGCQICLTKSMDNMTVRVPETVADARQSIDVGKTS [V92H] | 0.295 | 0.314 |
| MAAAGGARLLRAASAVLGGPAGRWLHHAGSRAGSSGLLRNRGPGGSAEASRSLSVSARARSSSEDKITVHFINRDGETLTTKGKVGDSLLDVAVENNLDIDGFGACEGTLACSTCHLIFEDHIYEKLDAITDEENDMLDLAYGLTDRSRLGCQICLTKSMDNMTVRVPETVADARQSIDVGKTS [V93A] | -0.15 | 1.27 |
